In patent US20260022166A1 (JIANGSU HENGRUI MEDICINE, published 2026):
Residue numbers refer to the chain shown, from its start.

B1: hu119-30 (antibody, human IgG1, kappa, V domains shown)
VH: EAQLVQSGAEVKKPGSSVKVSCKASGFTFSTYNMHWVRQAPGQGLEWIGAIYPGNGETSYNQKFKDRATLTVDKSTRTAYMELSSLRSEDTAVYYCAREDDYGEGYFDVWGQGTTVTVSS
VL: DIVLTQSPATLSLSPGERATLSCRASESVDSSGLSFMHWYQQKPGQPPRLLLYRASNLGSGIPARFSGSGSGTDFTLTISSLEPEDFAVYYCQQINTDPLTFGQGTKLEIKR
B2: hu3-13 (antibody, human IgG1, kappa, V domains shown)
VH: EVQLVQSGAEVKKPGASVKVSCKASGYTFTDDYMNWVRQAPGQRLEWMGIISPYNGGTSYNQKFKGRVTLTVDKSASTAYMELSSLRSEDTAVYYCAREDYDYDGYAMDYWGQGTTVTVSS
VL: EIVLTQSPATLSLSPGERATLSCRASSSVSYMHWYQQKPGQAPRPWIYATSNLASGVPARFSGSGSGTSYTLTISRLEPEDFAVYYCQQSDSGREFGGGTKVEIKR
B3: hu179-33 (antibody, human IgG1, kappa, V domains shown)
VH: EVQLVQSGAEVKKPGSSVKVSCKASGYTFSNYLIEWVRQAPGQGLEWIGVIDPGVGDTNYNENFKGRATLTADKSTSTAYIELSSLRSEDTAVYYCAREDNTGTAFDYWGQGTTVTVSS
VL: SIVMTQTPLSLSVTPGQPASISCKASQSVSSDVTWYLQKPGQSPQLLIYYVSEHYTGVPDRFSGSGYGTDFTLKISRVEAEDVGVYYCQQHHRFPLTFGQGTKLEIKR
B4: AMG157 (antibody, human IgG2, lambda, V domains shown)
VH: QMQLVESGGGVVQPGRSLRLSCAASGFTFRTYGMHWVRQAPGKGLEWVAVIWYDGSNKHYADSVKGRFTITRDNSKNTLNLQMNSLRAEDTAVYYCARAPQWELVHEAFDIWGQGTMVTVSS
VL: SYVLTQPPSVSVAPGQTARITCGGNNLGSKSVHWYQQKPGQAPVLVVYDDSDRPSWIPERFSGSNSGNTATLTISRGEAGDEADYYCQVWDSSSDHVVFGGGTKLTVLG
B5: hu199-36 (antibody, human IgG1, kappa, V domains shown)
VH: EVQLVQSGAEVKKPGASVKVSCKASGYTFTTYWMHWVKQAPGQGLEWMGMIDPSDSETTLIQKFKDKVTLTVDKSTSTAYMELSSLRSEDTAVYYCARTLDGYYDYWGQGTTVTVSS
VL: DIQMTQSPSSLSASVGDRVTITCRASENIYSYLAWYQQKPGKSPQLLVYFAKTLAEGVPSRFSGSVSGTQFTLTISSLQPEDFATYYCQHHYGTPWTFGGGTKVEIKR
B6: hu119-13 (antibody, human IgG1, kappa, V domains shown)
VH: B1 VH with A2V, R38K, Q39H, R77S
VL: B1 VL with D1E, S31N, P47A, L52I
notes: humanized, IgG1-YTE/kappa
B7: hu119-18 (antibody, human IgG1, kappa)
heavy: EVQLVQSGAEVKKPGSSVKVSCKASGFTFSTYNMHWVKHAPGQGLEWIGAIYPGNGETSYNQKFKDRATLTVDKSTSTAYMELSSLRSEDTAVYYCAREDDYGEGYFDVWGQGTTVTVSSASTKGPSVFPLAPSSKSTSGGTAALGCLVKDYFPEPVTVSWNSGALTSGVHTFPAVLQSSGLYSLSSVVTVPSSSLGTQTYICNVNHKPSNTKVDKKVEPKSCDKTHTCPPCPAPELLGGPSVFLFPPKPKDTLYITREPEVTCVVVDVSHEDPEVKFNWYVDGVEVHNAKTKPREEQYNSTYRVVSVLTVLHQDWLNGKEYKCKVSNKALPAPIEKTISKAKGQPREPQVYTLPPSRDELTKNQVSLTCLVKGFYPSDIAVEWESNGQPENNYKTTPPVLDSDGSFFLYSKLTVDKSRWQQGNVFSCSVMHEALHNHYTQKSLSLSPGK
light: EIVLTQSPATLSLSPGERATLSCRASESVDNSGLSFMHWYQQKPGQPPRLLLYRASNLGSGIPARFSGSGSGTDFTLTISSLEPEDFAVYYCQQINTDPLTFGQGTKLEIKRTVAAPSVFIFPPSDEQLKSGTASVVCLLNNFYPREAKVQWKVDNALQSGNSQESVTEQDSKDSTYSLSSTLTLSKADYEKHKVYACEVTHQGLSSPVTKSFNRGEC
notes: humanized, IgG1-YTE/kappa
B8: hu119-03 (antibody, human IgG1, kappa)
heavy: B7 heavy
light: DIVMTQSPDSLAVSLGERATINCRASESVDNSGLSFMHWYQQKPGQPPKLLIYRASNLGSGVPDRFSGSGSGTDFTLTISSLQAEDVAVYYCQQINTDPLTFGQGTKLEIKRTVAAPSVFIFPPSDEQLKSGTASVVCLLNNFYPREAKVQWKVDNALQSGNSQESVTEQDSKDSTYSLSSTLTLSKADYEKHKVYACEVTHQGLSSPVTKSFNRGEC
notes: humanized, IgG1-YTE/kappa
B9: hu119-07 (antibody, human IgG1, kappa)
heavy: B7 heavy
light: B8 light with M4L
notes: humanized, IgG1-YTE/kappa
B10: hu119-11 (antibody, human IgG1, kappa, V domains shown)
VH: B1 VH with A2V, R38K, Q39H, R77S
VL: DIVMTQSPDSLAVSLGERATINCRASESVDNSGLSFMHWYQQKPGQPPKLLLYRASNLGSGIPDRFSGSGSGTDFTLTISSLQAEDVAVYYCQQINTDPLTFGQGTKLEIKR
notes: humanized, IgG1-YTE/kappa
B11: hu179-08 (antibody, human IgG1, kappa)
heavy: EVQLVQSGAEVKKPGSSVKVSCKASGYTFSNYLIEWVRQAPGQGLEWIGVIDPGNGDTNYNENFKGRATLTADKSTSTAYIELSSLRSEDTAVYYCAREDNTGTAFDYWGQGTTVTVSSASTKGPSVFPLAPSSKSTSGGTAALGCLVKDYFPEPVTVSWNSGALTSGVHTFPAVLQSSGLYSLSSVVTVPSSSLGTQTYICNVNHKPSNTKVDKKVEPKSCDKTHTCPPCPAPELLGGPSVFLFPPKPKDTLYITREPEVTCVVVDVSHEDPEVKFNWYVDGVEVHNAKTKPREEQYNSTYRVVSVLTVLHQDWLNGKEYKCKVSNKALPAPIEKTISKAKGQPREPQVYTLPPSRDELTKNQVSLTCLVKGFYPSDIAVEWESNGQPENNYKTTPPVLDSDGSFFLYSKLTVDKSRWQQGNVFSCSVMHEALHNHYTQKSLSLSPGK
light: DIVMTQTPLSLSVTPGQPASISCKASQSVSSDVTWYLQKPGQSPQLLIYYVSNHYTGVPDRFSGSGSGTDFTLKISRVEAEDVGVYYCQQHHRFPLTFGQGTKLEIKRTVAAPSVFIFPPSDEQLKSGTASVVCLLNNFYPREAKVQWKVDNALQSGNSQESVTEQDSKDSTYSLSSTLTLSKADYEKHKVYACEVTHQGLSSPVTKSFNRGEC
notes: humanized, IgG1-YTE/kappa

Target: native TSLP (human, UniProt Q969D9 29-159)
Test: cell-based or functional assay

IC50 of inhibiting the proliferation of BaF3-TLSPR/IL7R cells induced by native TSLP [nM]	Binder
1.53	B1
0.289	B2
0.0228	B3

Target: Fc-tagged human TSLP antigen (huTSLP-Fc) (human)
Test: cell-based or functional assay

IC50 of inhibiting TSLP-induced proliferation of BaF3 cells overexpressing TSLPR/IL7R [nM]	Binder
0.573	B4
0.43	B1
0.444	B2
0.409	B3
0.476	B5

Target: T1, His-tagged human TSLP antigen (huTSLP-his) (human)
T1 construct: also called Human TSLP-his
Test: ELISA, coated huTSLP-his
Method: After discarding the liquid, 200 μl/well of blocking solution with 5% skimmed milk (Bright Dairy skimmed milk powder) diluted in PBS was added and incubated in a 37° C. incubator for 2 hours for blocking. After blocking was over, the blocking solution was discarded, and the plates were washed with PBST buffer (PBS containing 0.1% tween-20, pH 7.4) for 3 times. […] After incubation was over, the plates were washed with PBST for 3 times. […] After washing the plate with PBST for 6 times, 50 μl/well TMB chromogenic substrate (KPL, 52-00-03) was added and incubated at room temperature for 10-15 min, and 50 μl/well 1 M H₂SO₄ was added to stop the reaction. The absorption value was read by using a NOVOStar microplate reader at 450 nm.

EC50 [nM]	Binder
0.344	B6
0.345	B7
0.159	B8
0.213	B9
0.174	B10
1.02	B11
